Test results as given in the nanobody polyreactivity screen of Harvey et al. (2022).

Test: yeast display, Sf9 membrane polyspecificity reagent, FACS + sequencing; frameworks hold sequencing errors
Procedure, shortened: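 A nanobody's polyreactivity label depends on the gate it was sorted from. Yeast display cells were stained with 10% biotinylated, detergent-solubilized Sf9 membrane reagent for 1 hour at 4 °C, enriched on streptavidin microbeads and sorted by FACS. The low and high (top ~1%) gates were set on anti-HA fluorescence for expression and streptavidin fluorescence for reagent binding.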

Row | Sequence | polyreactivity (PSR sort gate)
1 | QVQLVESGGGLVQAGGSLRLSCAASGFITWGNAMGWYRQAPGKERELVAAISWRDARTYYADSVKGRFTISRDNAKNTVYLQMNSLKPEDTAVYYCNAVTAYVSRNLRGYRWFDYWGQGTQVTVSS | low polyreactivity
2 | QVQLVESGGGLVQAGGSLRLSCAASGSIFYHYAMGWYRQAPGKERELVAAITITGGSTYYADSVKGRFTISRDNAKNTVYLQMNSLKPEDTAVYYCARKWYVHYNYWGQGTQVTVSS | high polyreactivity
3 | QVQLVESGGGLVQAGGRLRLSCAASGSIFDLNAMGWYRQAPGKERELVAAISSGGGTYYADSVKGRFTISRDNAKNTVYLQMNSLKPEDTAVYYCNRVTRWTYNYWGQGTQVTVSS | high polyreactivity
4 | QVQLVESGGGLVQAGGSLRLSCAASGFTLSRYAMGWYRQAPGKERELVAAIRWSGGSTYYADSVKGRFTISRDNEKNTVYLQMNSLKPEDTAVYYCATRRSGYYSFYYWGQGTQVTGSS | high polyreactivity
5 | QGHLDESGGGIVQAGGSLRLSCAASGITVVTYAMGWYRQAPGKERELVAAISRSGGRTYYADSVKGRFTISRDNAKNTVYLLMNSLKPEDTAVYYCAAERKNKYDYWGQGTQVTVSS | high polyreactivity
6 | QVQLVESGGGLVQAGGSLRLSCDASGRIFGMYAMGWYRQSPGKEREFVAAISWRTGSTYYADSVKGRFTISRDNAKNTVYLQMNSLKPEDTAVYYCAAESAAKYGYWRQGTQVTVSS | high polyreactivity
7 | QGQLVESAGGLGQAGGSLRLSCAASGRTLGRYVMGWYRQGPGQVRELVAAISARTGSTYYADSVKGRFTISRDNAKNTVYLQMNSLKPEDTAVYYCATKFSSYDTRVSYDYWGQGTQVTVSS | low polyreactivity
8 | QDQLVESGGGLVQAGGSLRLICAASGITFLVNAMGWYRQAPGKERELVAGITSGDSTNYADSVKGRFTISRDNAKNTVYLQMNSLKPEDTAVYYCATVLYVGSGGGGILWDDDYWGQGTQVTVSS | low polyreactivity
9 | QDQLVESGGGLVQAGGSLRLSCAASGRTFVYNAMGWYRKAPGKVRELVAAITRGGSTNYADSVKGRFTISRDNAKNTVYLQMNILKPEDTAGYYCAAGLKRYGSYPWLKSGMGYWGQGTQVTVSS | high polyreactivity
10 | QVQLVESGGGLVQAGGSLRLSCAASGSTFYVYAMGWYRQAPGKERELGAAIDSGDSTNYADSVKGRVTISRDNAKNTVYLQMNSLKPEDTAVYYCAVGYWDSRYRYDWPNSDYWGQGTQVTVSS | low polyreactivity
11 | QVQLVESGGGLVQAGGSLRLSCAASGLTFLWYAMGWYRQAPGKERELVAAITSGGRTKYADSVKGRFTISRDNAKNTVYLQMNSLKPEDTAVYYCAKRGGGTTYSRKHDYWGQGTQVTVSS | high polyreactivity
12 | QVQLVESGGCLVQAGGSLRLSCAASGRTLYRNAMGWYRPAPGKERELVARITWSGASTYYADSVKGRFTISRDNAKNTVYLQMNSLKPEDTAVYYCAAQYLSRRYGPYYTYNYWGQGTQVTVSS | high polyreactivity
13 | QVQLVESGGGLVQAGGSLRLSCAASGSIFVHNAMGWYRQAPGKERELVAAISSNGGRTYYADSVKGRFTISRDNAKNTVYLQMNSLKPEDTAVYYCNAPRFVGLNVYGYDYWGQGTQVTVSS | high polyreactivity
14 | QVQLVESGGGLVQAGGSLRLSCAASGRTFSVYAMGWYRQAPGKERELVAAIRTSGGITYYADSVKGRFTISRDNAKNTVYLQMNSLKPEDTAVYYCAAETFRPYSYTRYYYWGQGSQVTVSS | high polyreactivity
15 | QVQLVESGGGLVQAGGSLRLSSAASGRIFSRYAMGWYRQAPGKERELVAAITQSGTSTYYADSVKGRFTISRDNAKNTVYLQMNSLKPEDTAVYYCNAYRQYRYDYWGQGSQVTVSS | low polyreactivity
16 | QVQLVESGGGLLQAGGSLRLSCAASVRFLCYGWYRQAPGKERELVAAITWSGGSTYYADSVKGRFTISRDNAKNTVYLLMNSLKPEDTAVYYCARYPDSYWYGRKNYYWGQGTQVTVSS | high polyreactivity
17 | QVQLVESGGGLVQAGGSLRLSCAASGRIVNFYAMGWYRQAPGKEREFVAAISWSGGSTSYADSVKGRFTISRDTAKKTDYLQMNSLKPEDTAVSYCAVRWSSRSRRYNYWGQGTQVTVSS | high polyreactivity
18 | QVQLVESGGGLVQAGGSLRLSCAASGRIRFYARGWYRQAPGKEREFVASITRSGGSTYYADSVKGRFTISRDNAKYTVYLQMNSLKPEDTAVYYCAADDYFHDDYWGQGTQVTVSS | high polyreactivity
19 | QVQLVESGGGLVQAGGSHRLSCAASGSIFIRYAMGWYRQAPAKERELVASITSGGSTYYADSVKGRFTISRDNEKNTVYLQMNSLKPEDTSVYYCNALPYRYRRYDYWGQGTQVTVSS | low polyreactivity
20 | QVQLVESGGGLVQAGGSLRLSSAASGRIFRWYAMGWYRQAPGKERELVATISSTGGSTYYADSVKGRFTISRDNAKNTVYLQMNSLKPEDTAVYYSNAVVYGIFLYAWYDYWGQGTQVTVSS | low polyreactivity
21 | QVQLVESGGGLVQAGGSLRLSCAASGRTLKYNAMGWYRQAPGKERELVAAISYSGSSTYYADSVNGRFTISRDKAKHTVYLQMNSLKPEDTEVYYCNTARPTAAYDYWGQGTQVTVSS | low polyreactivity
22 | QVQLVESGGGLVQAGGSLRLSCAASGITIRRYGMGWYRQAPGKERELVATITRDGRTYYADSVKGRFTISRDNAKNTVYLQMNSLKPEDTAVYYCARPARYSYGDGYWGQGTQVTVSS | low polyreactivity

Row | Sequence | polyreactivity (PSR sort gate)
23 | QVQLVESGGGIVQAGGSLRLSCAASGFTFPVYAMGWYRQAPGKEREFVAAITYIGGSTYADSVKGRFTISRDNAKNTVYLQMNSLKPEDTAVYYCAADIITEYWADYLGYLEYDYWGQGTQVTVSS | low polyreactivity
24 | QVQLVESGGGLVQAGVSLRLSCAASGFILDYNTMGWYRQAPGKERELVAAISSSGDTTYYADSVKGRFTISRDNAKNTVYLQMNSLKREDTAVYYCAREYGVGYEYWGLGTQVTVSS | low polyreactivity
25 | QVQLVESGGGLVQAGGSLRLSCAASGSIFHTYTMGWYRQAPGKERELVAAITRSGGTTYYADSVKGRFTISRDNAKNTVYLQMNSLKPEDTAVYYCAATHPGAVSFRYYYWGQGTQVTVSS | high polyreactivity
26 | QVQLVESGGGLVQAGGSLRLSCAASGSTFRSYAMGWYRQAPGKERELVAAISRGGSTYYADSVKGRFTISRDNAKNTVYLQMNSLKPEDTAVYYCAARPPRGSWQYDYWGQGTQVTVSS | high polyreactivity
27 | QVQLVESGGGLVQAGGSLRLSCAASGRIFKRYAMGWYRQAPGKERELVAAITRSGGSMYYADSVKGRFTISRDNAKNTVYLQMNSLKPEDTAVYYCNKVYGPHPERAVYYEGDYWGQGTQVTVSS | high polyreactivity
28 | QVQLVESGGGLGQAGGSLRLSCAASGIIFWLYAMGWYRQAPGKDRELVAAITRSDGDTYYADSVKGRFTISRDNAKNTVYLQMNSLKPEDTAVYYCAARFTDYIHIWPFLLYNEVYYWGQGTQVTVSS | low polyreactivity
29 | QVQLVESGGGLVQAGGSLRLSCPASGRIFVRNAMGWYRQAPGKERELVAAITTSGGRTYYADSVKGRFTISRDLAKNPVYLQMNSLKPEDTAVYYCAAETRYRNFPYYYWGQCTQVTVSS | high polyreactivity
30 | QVQLVESGGGLVQAGGSLRLSCAASGMTFTKNVMGWYRQAPGKEWELVAVISRSGGSTYYADSVKGRFTISRDNAKNTVYLQMNSLKPEDTAVYYCTVKGPGPSRGNYWGQVTQVTVSS | low polyreactivity
31 | QVQLVESGGGLVQAGGSLRLSCAASGITYSYYAMGWYRQAPGKEREFVAAISRTGTSTYYADSVKGRFTISRDNAKNTVYLQMNSLNPEDTADYFCAAVPRHPYHDKYDYWGQGTQVTVSS | high polyreactivity
32 | QVQHVESGGGLVQAGRSLRLSCAASGSIFRDNDMGWYRQATGKEREFVAAINWSGVSTYYADSVKGRFTISRDNAKNTVYLQMNSLKPEDTAVSYCAAGYLKWRRYNYWGQGTQVTVSS | high polyreactivity
33 | QDHLVESGGGLVQAGGSLRLSCAASRRTLLRYAMGWYRQAPGKERELVAAISSSGGRTYYADSVKGRFTISRDNAKNTVYLQMNSLKPEDTAVYYCAAKSSYVGHDYWGQGTQVTVSS | high polyreactivity
34 | QVQLVESGGGLVQAGGSLRLSCSASGSIFGRKMGWYRQAPVKERELVAAITWSGGRTYYADSVKGRFTISRDNAKNTVYLLMNCLKPEDTAVYYCNAVRRYTGYAFKDDYWGQGNQVTVSS | high polyreactivity
35 | QVQLVESGGGLVQAGGSLRLSCAASGGIFADYAMGWYRQAPGKERELVAAISSGGNTNYADSVKGRFTISRDNAKNTVYLQMNSLKPEDTAVYYCNRDTSYYRYVYYEGNDYWGQGTQVTVSS | low polyreactivity
36 | QVQLVESGGGLVQAGGTLRLSCAASGITFVQYAMGWYRQAPGKETELVASITRRGGSTYYADSVKGRFTISRDNAKNTVYLQMNSLKQEDTAVYYCAARWSAWRGYIFDYWGQGTQVTVSS | high polyreactivity
37 | QVQLVESGGGLVQAGGSLRLSCAASGSILLRYAMGWYRQAPGKERELVAAIRTIGASTYYADSVKGRFTISRDNAKNTVYLQMNSLKPEDTAVYYCNAYLAEVLPLGKGRLYDYWGQGTQVTVSS | low polyreactivity
38 | QVQLVESGGGLVQAGGSLRLSCSASRSTFPGYAMGWYRQAPGKERELVAAISVSGDRTYYADSVKRRFTISRDNPQNTVYLQMNRLKPEDTAVYYCAVRTRYRGSGVWVGNYSWGQGTQVTVSS | high polyreactivity
39 | QVQLVESGGGLVKAGGSLRLSSAASGSTFERYAMGWYRQAPGNERELVAAINWSGGGTYYADSVKGRFTISRDTAKNTVYLQMNSLKPEDTAVYYCAADSGTVVFSLWWYEYYYWGQGNQVTVSS | low polyreactivity
40 | QVQLVESGGGLVQAGGSLRLSCAASGSTFWYYAMGWYRQAPGKERELVAAIRWSDGSTYYADSVKGRFTISRDNAKNTVYLQMNSLKPEDTAVYYCEYYYWGQGTQVTVSS | low polyreactivity
41 | QVQLVESGGGLVQAGGSLRLSCAASGRTFVPYAMGWYRQAPGKERELVAAISARGSSTYYADSVKGRFTISRDNAKNTVYLQMNSLKPEDTAVYYCNAVGARVASATGMEYWGQGTQVTVSS | high polyreactivity
42 | QVQLVEAGGGLVQAGGSLRLSCASSGSIITVYDMGWYRQPPGKERELVATITGSDGRTDYADSVKGRFTISRDNAKNTVYLQMNSLKPEDTAVYYCAAHVFQWKNRQSLLFDQGYYWGQGTQVTVSS | low polyreactivity
43 | QVQLLESGGGLDQAGGTLRLSCAASGGTINLYAMAWYRPAPGKERELVAAISWSGGTTYYADSVKGRFTLSRDNAKNTVYLQIISLKPVDTAVYYCAAYFRTSLGTYDYWGQGTKVTVSS | high polyreactivity
